Target: T1, Mouse Fc-fused SARS-CoV-2 RBD (SARS-CoV-2, original strain (Wuhan-Hu-1 …, UniProt P0DTC2))
T1 construct: source: bought: Sino Biological
Test: SPR
Settings: both partners purified

B1: anti-SARS-CoV-2 single-chain variable fragment S1-16 (scFv, V domains shown)
VH: QVQLVQSGAEVKKPGASVKVSCKASGYTFTSYYMHWVRQAPGQGLEWMGIINSSGGSTSYAQKFQGRVTMTRDTSTSTVYMELSSLRSEDTAVYYCARPPRNYYDRSGYYQRAEYFQHWGQGTLVTVSS
VL: DIQLTQSPSSLSASVGDRVTITCQASQDISNYLNWYQQRPGKAPKLLIYDASNLETGVPSRFSGSGSGTDFTFTISSLQPEDIATYYCQQYDNPPLTFGGGTKLEIK
notes: also called scFv S1-16; not shown: His6, C-terminal, kept
B1 showed a Kd of 135 nM.

Source: PMC10189128 (Frontiers in Cellular and Infection Microbiology, 2023)
